# T1: human PTK7, full length, expressed on transduced cells (human, UniProt Q13308 31-1070)
# T1 sequence: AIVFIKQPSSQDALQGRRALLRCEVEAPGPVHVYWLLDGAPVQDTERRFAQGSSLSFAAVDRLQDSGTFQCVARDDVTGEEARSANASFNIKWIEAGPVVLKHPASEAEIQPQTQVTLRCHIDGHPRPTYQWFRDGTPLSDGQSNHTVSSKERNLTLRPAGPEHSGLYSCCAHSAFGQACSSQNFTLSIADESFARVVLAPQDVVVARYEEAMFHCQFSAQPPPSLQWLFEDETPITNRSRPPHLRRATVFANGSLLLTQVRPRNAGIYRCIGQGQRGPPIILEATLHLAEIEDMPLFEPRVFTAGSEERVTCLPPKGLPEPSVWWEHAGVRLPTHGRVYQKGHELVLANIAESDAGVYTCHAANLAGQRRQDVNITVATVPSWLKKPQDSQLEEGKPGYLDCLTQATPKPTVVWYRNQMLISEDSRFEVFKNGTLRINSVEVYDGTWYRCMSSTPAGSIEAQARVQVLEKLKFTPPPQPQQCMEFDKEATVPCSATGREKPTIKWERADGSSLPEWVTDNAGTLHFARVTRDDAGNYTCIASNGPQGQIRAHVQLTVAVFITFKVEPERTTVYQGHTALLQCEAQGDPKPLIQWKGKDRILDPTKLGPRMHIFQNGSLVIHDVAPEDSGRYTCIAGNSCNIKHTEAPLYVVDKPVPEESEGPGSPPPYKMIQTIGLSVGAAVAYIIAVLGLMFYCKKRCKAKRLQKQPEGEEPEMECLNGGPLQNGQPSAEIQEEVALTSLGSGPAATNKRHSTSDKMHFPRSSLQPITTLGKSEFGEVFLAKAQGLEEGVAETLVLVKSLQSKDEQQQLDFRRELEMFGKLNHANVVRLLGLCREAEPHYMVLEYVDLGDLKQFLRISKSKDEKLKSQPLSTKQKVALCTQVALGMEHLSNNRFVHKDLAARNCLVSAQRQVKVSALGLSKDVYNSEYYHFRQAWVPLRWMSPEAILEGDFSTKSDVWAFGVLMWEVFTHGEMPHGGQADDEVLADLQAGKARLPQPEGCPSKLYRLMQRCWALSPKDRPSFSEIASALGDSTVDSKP
# T2: PTK7 ECD Ig domains 6-7 Fc fusion (human)
# T2 chain: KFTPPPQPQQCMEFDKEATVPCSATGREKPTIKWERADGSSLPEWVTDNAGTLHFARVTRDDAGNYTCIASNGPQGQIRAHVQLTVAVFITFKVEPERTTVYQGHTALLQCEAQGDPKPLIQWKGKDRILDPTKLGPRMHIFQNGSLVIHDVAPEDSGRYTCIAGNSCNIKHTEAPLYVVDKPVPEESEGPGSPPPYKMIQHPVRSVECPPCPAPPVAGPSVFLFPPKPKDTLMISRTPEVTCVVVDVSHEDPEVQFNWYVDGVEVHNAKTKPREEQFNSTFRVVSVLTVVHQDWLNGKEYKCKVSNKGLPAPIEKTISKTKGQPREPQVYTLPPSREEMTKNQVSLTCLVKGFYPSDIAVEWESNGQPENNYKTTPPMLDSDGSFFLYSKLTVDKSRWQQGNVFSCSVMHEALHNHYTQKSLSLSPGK
# T3: PTK7 ECD Ig domains 1-4 Fc fusion (human)
# T3 chain: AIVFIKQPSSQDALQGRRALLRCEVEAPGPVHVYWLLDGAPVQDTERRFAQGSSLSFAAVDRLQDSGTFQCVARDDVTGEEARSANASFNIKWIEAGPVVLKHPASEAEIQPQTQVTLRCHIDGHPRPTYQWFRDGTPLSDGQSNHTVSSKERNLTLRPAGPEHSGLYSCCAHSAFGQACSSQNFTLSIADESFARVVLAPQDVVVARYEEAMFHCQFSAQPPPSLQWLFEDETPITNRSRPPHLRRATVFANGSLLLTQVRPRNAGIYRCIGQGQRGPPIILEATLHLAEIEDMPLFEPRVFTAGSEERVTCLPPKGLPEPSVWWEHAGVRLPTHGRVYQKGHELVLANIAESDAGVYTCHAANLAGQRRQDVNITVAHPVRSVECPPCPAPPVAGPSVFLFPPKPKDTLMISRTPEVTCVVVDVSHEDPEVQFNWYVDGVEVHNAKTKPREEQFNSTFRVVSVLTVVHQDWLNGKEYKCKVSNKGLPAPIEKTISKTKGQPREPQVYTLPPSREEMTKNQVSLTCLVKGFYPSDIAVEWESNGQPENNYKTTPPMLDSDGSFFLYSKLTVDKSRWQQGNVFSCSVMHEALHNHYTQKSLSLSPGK
# T4: PTK7 ECD Ig domains 1-5 Fc fusion (human)
# T4 chain: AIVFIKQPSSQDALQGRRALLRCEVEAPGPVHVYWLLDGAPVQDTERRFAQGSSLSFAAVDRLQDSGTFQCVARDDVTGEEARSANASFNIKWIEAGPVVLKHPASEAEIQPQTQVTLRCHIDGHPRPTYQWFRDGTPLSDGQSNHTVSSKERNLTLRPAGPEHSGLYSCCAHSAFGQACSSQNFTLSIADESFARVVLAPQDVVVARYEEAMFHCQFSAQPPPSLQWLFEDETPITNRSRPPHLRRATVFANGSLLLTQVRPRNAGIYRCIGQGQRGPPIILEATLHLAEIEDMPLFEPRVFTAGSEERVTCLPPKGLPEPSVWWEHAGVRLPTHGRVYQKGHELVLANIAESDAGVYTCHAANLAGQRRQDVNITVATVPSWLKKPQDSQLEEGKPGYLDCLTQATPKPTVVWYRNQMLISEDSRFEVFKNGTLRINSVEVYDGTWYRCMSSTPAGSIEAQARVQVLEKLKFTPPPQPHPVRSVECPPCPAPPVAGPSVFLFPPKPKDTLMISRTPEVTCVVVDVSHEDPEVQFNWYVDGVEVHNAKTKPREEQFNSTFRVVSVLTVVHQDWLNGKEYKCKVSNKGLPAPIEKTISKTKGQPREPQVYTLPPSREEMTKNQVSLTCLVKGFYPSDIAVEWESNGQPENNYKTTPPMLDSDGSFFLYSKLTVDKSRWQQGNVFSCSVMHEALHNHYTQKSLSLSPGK
# Experiments:
# [1] = biological target: T1, human PTK7, full length, expressed on …; test: cell-based or functional assay
# [2] = biological target: T2, PTK7 ECD Ig domains 6-7 Fc fusion; test: ELISA, Ig-domain Fc fusion captured by anti-human IgG Fc
# Method: (§1) Using these constructs several modulators were tested for their ability to recognize PTK7 proteins with deletions of defined Ig domains. Through an ELISA assay comprising the use of domain deleted constructs and run under standard conditions. In this regard PTK7 Ig domain Fc fusions were captured on ELISA plate coated with goat anti-human IgG Fc-specific (Jackson Immunoresearch) antibody. The ability of each murine anti-PTK7 antibody to bind the various deletion Fc fusion proteins was then detected with HRP-labeled goat anti-mouse Fc-specific antibody.
# [3] = biological target: T3, PTK7 ECD Ig domains 1-4 Fc fusion; test: as above
# Method: as §1
# [4] = biological target: T4, PTK7 ECD Ig domains 1-5 Fc fusion; test: as above
# Method: as §1
binding result [2],binding result [3],binding result [4],Binder,"EC50, saporin (Fab-ZAP) cell killing, 293.PTK7 Cells [1] [pM]"
no binding,binds,binds,"SC6.10.2 (antibody, V domains shown, Murine monoclonal antibody from a hybridoma; also called H10.2; H10) VH: QVQLQQSGAELVRPGVSVKISCKGSGYRFTDYPIHWVKQSHAKSLEWIGIISTYYGDVTNNPKFRGKATMTVDKSSTTAYMELARLTSEDSAIYYCARNDLFAYWGQGTLVTVSA VL: DIVMTQSQKFMSTSVGDRVNVTCKASQNVGTNVVWYQQKTGQSPKALIHSASYRYSGVPDRFTGSGSGTDFTLTLSNVQSEDLAEYFCQHYNSFPYTFGGGTKLEIKR",1.1
no binding,binds,binds,"SC6.2.35 (antibody, V domains shown, Murine monoclonal antibody from a hybridoma; also called H2.35; SC6.H2) VH: QVQMQQSGAELMKPGASVKLSCKATGYTFTGYWIEWVKQRPGHGLEWIGEILPGSGRSNSNEKFKGKATFTADTSSNTAYMQLSSLTTEDSAIYYCARGKLSWGQGTLVTVSA VL: DIVLTQSPASLAVSLGQRATISCRASESVDSFGNSFMHWYQQKPGQPPKLLIYAASNLGSGVPARFSGSGSGTDFSLNIHPVEEDDSAMYFCQQSKEVPRTFGGGSRLEIKR",0.65
